Here are results for three molecules from PMC6811539, “Minute-scale persistence of a GPCR conformation state triggered by non-cognate G protein interactions primes signaling” (Nature Communications, 2019).

Usually Kd stands for the concentration at which binding is half-saturated.

Assay [1] concerns the target T1, β2-AR-mCerulean (human, UniProt P07550 1-413).
T1 construct: human β2-adrenergic receptor, cDNA from Open Biosystems; Constructed 'in a similar manner' to the SPASM sensors; m1 stands for it there; also called β2-mCer; β2-mCerulean; source: HEK293T, transiently transfected, native membranes
The assay is described as follows: pull-down; binding step of the binding-and-release assay: 30 μM biotinylated Gα peptide and 100 μM isoproterenol mixed 5 min with native membranes (10 nM β2-mCer) in 20 mM HEPES, 100 mM NaCl, 45 mM KCl, 5 mM MgCl2, pH 7.4; complex depleted with streptavidin-coated magnetic beads; unbound receptor from mCer fluorescence of the supernatant; KD estimated from a single point. The following applies: one partner purified.

The target in assay [2] is T1, β2-AR-mCerulean. The assay is described as follows: cell-based or functional assay.

Where no end group is shown, it is not given here. The star is where a group is joined. Biotin = O=C1N[C@H]2[C@H](CS[C@H]2CCCCC(=O)*)N1 Some results are limits rather than exact numbers.

B1: biotinylated Qp (peptide)
peptide: Biotin-DTENIRFVFAAVKDTILQLNLKEYNLV
notes: Gαq C-terminal α5 peptide (Qp), last 27 residues of Gαq; also called bioQp; bioQP; source: synthetic peptide (GenScript); not shown: biotin, N-terminal, kept
As for B1, the Kd with β2-AR-mCerulean [1] was above 200 µM.

In the case of Biotin-DTENIRRVFNDCRDIIQRMHLRQYELL [biotinylated Sp], in the assay with β2-AR-mCerulean [1], the Kd was around 30 µM.

As to DTENIRFVFAAVKDTILQLNLKEYNLV [Qp (Gαq C terminus peptide)], the “activation of endogenous Gs (BODIPY-FL-GTPγS) after fenoterol in native membranes with β2-AR-mCherry, with 30 μM Qp against no peptide” value with β2-AR-mCerulean [2] is around 7 fold.
